Laboratory results taken from article PMC9364107.

Target: SF3B1 residues 147–462 (ULM-containing N-terminal region) (human) (UniProt O75533)
Experiment: ITC

Chain of SF3B1 residues 147–462 (ULM-containing N-terminal region) (human) (O75533 147-462): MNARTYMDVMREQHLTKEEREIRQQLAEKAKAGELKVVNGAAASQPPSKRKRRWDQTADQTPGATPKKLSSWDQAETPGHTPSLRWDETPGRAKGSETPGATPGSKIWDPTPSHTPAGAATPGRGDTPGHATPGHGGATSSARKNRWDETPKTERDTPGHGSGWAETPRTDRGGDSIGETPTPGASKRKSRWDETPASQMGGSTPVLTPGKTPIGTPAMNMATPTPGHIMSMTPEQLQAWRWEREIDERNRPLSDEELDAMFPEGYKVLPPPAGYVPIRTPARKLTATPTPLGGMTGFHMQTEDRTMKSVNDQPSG

U2AF2^12UL (nearly full-length U2AF2, residues 141–471) (domain or fragment)
stoichiometry N: 2
